In article PMC7846277:

Molecular target: microtubules grown from purified bovine brain tubulin (bovine) (UniProt Q6B856)
Experiment: laser trap (optical trap) rupture force assay; kinetochore particles on anti-His5 beads (7.5 nM Dsn1-His-Flag), placed at the ends of microtubules growing from coverslip-anchored seeds; BRB80 growth buffer with 1 mM GTP, 1.5 mg/mL tubulin; force ramp 0.25 pN/s; 23°C

Chain of UniProt Q6B856 (Q6B856 whole entry, looked up): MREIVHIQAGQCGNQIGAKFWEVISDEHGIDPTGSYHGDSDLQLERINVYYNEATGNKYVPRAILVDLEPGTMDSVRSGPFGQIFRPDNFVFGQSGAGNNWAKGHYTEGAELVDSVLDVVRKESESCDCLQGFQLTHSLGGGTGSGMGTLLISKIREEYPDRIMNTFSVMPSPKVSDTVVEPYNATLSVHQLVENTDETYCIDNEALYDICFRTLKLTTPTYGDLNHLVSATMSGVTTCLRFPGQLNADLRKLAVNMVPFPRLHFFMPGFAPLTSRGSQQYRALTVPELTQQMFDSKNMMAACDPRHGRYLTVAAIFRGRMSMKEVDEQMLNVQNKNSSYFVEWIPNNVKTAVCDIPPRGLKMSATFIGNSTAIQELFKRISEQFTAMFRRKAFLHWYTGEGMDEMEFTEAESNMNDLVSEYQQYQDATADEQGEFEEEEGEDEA

| Substance | mean rupture force |
| --- | --- |
| Wild-type kinetochore particles from mitotic metaphase cells (from UniProt P40568 1-576) (complex) | 9 pN |
| Wild-type meiotic metaphase I kinetochore particles (from UniProt P40568 1-576) (complex) | 12 pN |
